Target: MutSα (MSH2 subunit);MutSα (MSH6 subunit) (human;human, UniProt P43246;P52701 1-934;1-1360, |)
Assay: EMSA

B1: rC/G (dsDNA)
DNA 1: CCAGACGTCTGTCGACGTTGGGAAGCTTGAG
DNA 2: CTCAAGCTTCCCAACGTCGACAGACGTCTGG
modifications: single ribocytidine at position 13 of strand 1 (rC opposite G)
**Q.** Does B1 bind?
**A.** no binding

Source: paper PMC3653069
